Where a chain is given by its changes, count along the chain named. Where two headings read alike, the source gives them in different places.

In experiment [1] the target is T1, Human active C1s (Complement Technology) (human, UniProt P09871 16-688).
T1 sequence: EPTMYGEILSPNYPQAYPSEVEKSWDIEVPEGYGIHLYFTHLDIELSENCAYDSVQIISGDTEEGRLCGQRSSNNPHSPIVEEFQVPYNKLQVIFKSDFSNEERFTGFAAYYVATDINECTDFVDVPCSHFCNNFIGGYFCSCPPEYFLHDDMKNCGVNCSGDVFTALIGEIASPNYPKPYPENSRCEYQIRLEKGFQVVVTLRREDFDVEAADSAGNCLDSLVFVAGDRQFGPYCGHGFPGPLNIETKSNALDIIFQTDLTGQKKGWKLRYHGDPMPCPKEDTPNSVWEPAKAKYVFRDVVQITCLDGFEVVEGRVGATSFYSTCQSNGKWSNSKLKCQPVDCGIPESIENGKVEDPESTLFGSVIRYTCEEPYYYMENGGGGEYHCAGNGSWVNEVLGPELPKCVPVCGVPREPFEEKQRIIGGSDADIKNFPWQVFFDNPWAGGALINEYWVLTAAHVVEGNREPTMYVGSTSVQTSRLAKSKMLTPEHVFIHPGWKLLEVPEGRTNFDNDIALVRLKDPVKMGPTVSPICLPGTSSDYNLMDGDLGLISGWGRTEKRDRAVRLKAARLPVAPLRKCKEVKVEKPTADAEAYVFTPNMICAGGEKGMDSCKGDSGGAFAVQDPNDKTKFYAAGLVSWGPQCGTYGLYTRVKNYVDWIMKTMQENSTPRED
In words: cell-based or functional assay.

Experiment [2] has as its target T1, Human active C1s (Complement Technology). In words: cell-based or functional assay. This is another data set of the same source.
For experiment [3] the target is unchanged. In words: cell-based or functional assay. The source holds these as a separate data set.
Experiment [4] shares this target. In words: SPRi Carterra LSA, antibody captured on protein A/G, human active C1s as analyte, 25 C, 1:1 fit. The procedure:
C1s binding using surface plasmon resonance (SPRi): Analysis of active C1s binding was performed on a Carterra LSA SPRi instrument at 25° C. Protein A/G (Sigma) diluted in 25 mM MES pH 6.0, 0.05% Tween-20 running buffer was covalently immobilized to an HC200M sensor chip using amine coupling. Antibodies were diluted to 0.2 μg/mL in HBS-EP+ buffer and printed in duplicate to the protein A/G surface in the capture 96-array format for 5 min followed by a 1 min baseline in buffer. Human active C1s (Complement Technology) was serially diluted […] from 1 μM to 0.781 nM in running buffer and injected over the captured antibodies for 5 min with a 5 min dissociation time. The surface was regenerated with 10 mM glycine pH 1.5 with two 30 sec injections. Sensorgrams were processed with the Carterra® K.I.T. Inspection Tool and fit to a 1:1 binding model to obtain kinetic constants.
Three variants were selected as viable engineered alternatives to the wild-type anti-aC1s sequence: D32E, D32S, and D32Y. The three variants were expressed as bivalent monospecific anti-aC1s antibodies with human IgG1 and their affinity for aC1s tested by surface plasmon resonance (Table 5).

Experiment [5] shares this target. The experiment can be described thus: cell-based or functional assay. The source holds these as a separate data set.
Experiment [6] has the same target. In words: SPR Biacore T200, antibody captured on anti-human Fc, human active C1s as analyte, 1:1 fit. The procedure:
(§1) TfR and C1s binding using surface plasmon resonance (SPR): Analysis of antibody binding to TfR was performed on a Biacore™ T200 instrument using anti-His capture at 25° C. Anti-His (Qiagen) was buffer exchanged into PBS pH 7.2, diluted to 25 μg/mL in 10 mM sodium acetate pH 4.0 and directly immobilized to a series S CM5 chip to a surface density of ˜10,000 RU using the amine coupling kit provided by Cytiva. His-tagged recombinant human TfR (produced in-house) was diluted in HBS-EP+ pH 7.4 running buffer (10 mM HEPES pH 7.4, 150 mM NaCl, 3 mM EDTA, 0.05% surfactant P20) and injected for 5 sec at 20 μL/min flowrate to obtain capture level of 20 RU. Antibodies were serially diluted 2-fold from 90 to 5.625 nM in running buffer and injected over the captured TfR for 3 min followed by 9 min dissociation in buffer at 30 μL/min. Each cycle was regenerated with 10 mM glycine pH 1.5. To measure C1s binding, anti-human Fc (Jackson) was directly immobilized to a CM5 chip using amine chemistry. Antibodies were diluted to 2.5 μg/mL in HBS-EP+ pH 7.4 and captured to the chip for 15 sec at 20 μL/min flowrate. Human active C1s (Complement Technology) was serially diluted 2-fold from 20 to 0.625 nM in running buffer and injected over the captured antibodies for 180 sec at 50 μL/min followed by 9 min dissociation in buffer. The bound complex was removed from the chip each cycle with 40 mM HCl and 0.85% phosphoric acid. Sensorgrams were processed using the Biacore™ Insight software and fit to a 1:1 binding model to obtain kinetic constants.
(§2) The six bispecific anti-aC1s/anti-TfR antibodies were first tested for their affinity for both TfR and aC1s via surface plasmon resonance (SPR) (Table 2).
A general note: SPR reads the build-up and loss of mass on a sensor chip optically.

Experiment [7] concerns the target T2, His-tagged recombinant human TfR (produced in-house) (human, UniProt P02786 89-760).
T2 construct: also called hTfR; transferrin receptor 1
The experiment can be described thus: SPR Biacore T200, His-tagged human TfR captured on anti-His, antibody as analyte, 25 C, 1:1 fit. The procedure: as §1, §2

T2 sequence (P02786 89-760 limits assumed): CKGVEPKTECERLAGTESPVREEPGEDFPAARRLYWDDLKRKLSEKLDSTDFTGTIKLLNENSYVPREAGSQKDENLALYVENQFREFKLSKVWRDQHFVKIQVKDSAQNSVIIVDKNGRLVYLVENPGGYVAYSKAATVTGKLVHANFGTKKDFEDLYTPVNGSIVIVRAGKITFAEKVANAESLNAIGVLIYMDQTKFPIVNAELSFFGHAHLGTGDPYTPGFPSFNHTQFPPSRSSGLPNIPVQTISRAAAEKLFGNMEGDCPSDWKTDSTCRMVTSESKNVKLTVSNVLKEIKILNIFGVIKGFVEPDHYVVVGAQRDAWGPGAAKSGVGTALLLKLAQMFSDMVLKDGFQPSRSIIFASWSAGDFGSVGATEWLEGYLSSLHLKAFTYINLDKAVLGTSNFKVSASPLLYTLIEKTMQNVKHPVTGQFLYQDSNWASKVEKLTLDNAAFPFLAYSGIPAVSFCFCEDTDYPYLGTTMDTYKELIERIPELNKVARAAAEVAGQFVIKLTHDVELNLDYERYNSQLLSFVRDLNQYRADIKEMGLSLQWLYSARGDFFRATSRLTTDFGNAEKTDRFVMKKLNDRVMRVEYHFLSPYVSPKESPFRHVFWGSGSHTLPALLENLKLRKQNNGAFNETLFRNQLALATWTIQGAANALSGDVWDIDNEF

B1: SAR445088 (antibody, V domains shown)
VH: QVQLVQSGAEVKKPGASVKLSCTASGFNIKDDYIHWVKQAPGQGLEWIGRIDPADGHTKYAPKFQVKVTITADTSTSTAYLELSSLRSEDTAVYYCARYGYGREVFDYWGQGTTVTVSS
VL: DIVLTQSPDSLAVSLGERATISCKASQSVDYDGDSYMNWYQQKPGQPPKILIYDASNLESGIPARFSGSGSGTDFTLTISSLEPEDFAIYYCQQSNEDPWTFGGGTKVEIK
modifications: sulfated tyrosine (Y36) on the light chain
notes: Bivalent monospecific anti-aC1s antibody; also called BIVV020; the wild-type antibody
Regarding B1, the “IC50, Wieslab Complement Pathway Assay (classical pathway, 1% NHS)” value (“IC50 … (classical pathway, 1% NHS)” below) in experiment [1] stood at 0.77 µg/mL. For the same molecule, the “IC50 … (classical pathway, 1% NHS)” value in experiment [2] is 1.07 µg/mL. In experiment [3], the “IC50, Wieslab Complement Pathway Assay (batch 1)” value turned out to be 0.45 µg/mL and the “IC50, Wieslab Complement Pathway Assay (batch 2)” value came to 0.63 µg/mL. Moreover, in experiment [4], the equilibrium dissociation constant (Kd) – broadly, the free concentration of one partner at which half of the binding sites on the other are occupied at equilibrium, for simple one-to-one binding – stood at 2.5 nM; the koff (as a rule, the first-order rate constant of dissociation) came to 0.0033 s⁻¹; the kon (in general, the second-order rate constant of association) amounted to 1.3e+06 M⁻¹ s⁻¹.

B2: aC1s_D32E IgG1-dK (antibody, V domains shown)
VH: B1 VH
VL: B1 VL with D32E
modifications: Y36 sulfation: Yes
B2: the “IC50 … (classical pathway, 1% NHS)” value in experiment [2] is 1.36 µg/mL. In experiment [4], this molecule displayed a dissociation constant (Kd) of 2.5 nM, a dissociation rate constant (koff) of 0.0032 s⁻¹ and a kon of 1.3e+06 M⁻¹ s⁻¹.

B3: aC1s_088 IgG1-dK (antibody, V domains shown)
VH: B1 VH
VL: B1 VL
Consider B3, for which the “IC50 … (classical pathway, 1% NHS)” value in experiment [2] was 0.84 µg/mL.

B4: aC1s_088 × 531v25 IgG1-NNAS/dK (bispecific antibody, V domains shown)
VH 1: B1 VH with Q39E
VL 1: B1 VL with Q42K
VH 2: QVQLVQSGAEVKKPGASVKVSCKASGYTFTRYYLNWVRKAPGQGLEWIGMIDPSVSETHYAQKFQGRATLTVDKSTSTAYMELSSLRSEDTAVYYCSQIRLPYYYAMDSWGQGTTVTVSS
VL 2: DIQMTQSPSSLSASVGDRVTITCRASQDISSFLNWYQEKPGKAPKLLIYYTSRLQSGVPSRFSGSGSGTDYTLTISSLQPEDFATYYCQQGNTLPRTFGGGTKVEIK
notes: IgG1-NNAS Fc, dK, with charge pairing mutations; The starred variable domains are used, as for m5
Take B4: the “IC50 … (classical pathway, 1% NHS)” value in experiment [1] was 2.02 µg/mL. Moreover, in experiment [5], the “IC50, C3d deposition on neurons in iPSC tricultures with serum” value turned out to be 29.7 µg/mL. In experiment [6], this molecule came in with a Kd of 0.68 nM, a koff of 0.00285 s⁻¹ and an association rate constant (kon) of 4.22e+06 M⁻¹ s⁻¹. Besides, in experiment [7], the equilibrium dissociation constant (Kd) stood at 24.6 nM, the koff is 0.0049 s⁻¹ and the on-rate constant (kon) stood at 199000 M⁻¹ s⁻¹.

B5: aC1s_088 × 531v25.v6 IgG1-NNAS/dK (bispecific antibody, V domains shown)
VH 1: B1 VH with Q39E
VL 1: B1 VL with Q42K
VH 2: B4 VH 2
VL 2: B4 VL 2 with S30E
notes: as for B4
On to B5, for which the “IC50 … (classical pathway, 1% NHS)” value in experiment [1] is 1.78 µg/mL. The “IC50, C3d deposition on neurons in iPSC tricultures with serum” value in experiment [5] came out at 12.8 µg/mL. Moreover, in experiment [6], the affinity, expressed as Kd, was 0.69 nM; the koff is 0.00272 s⁻¹; the on-rate constant (kon) was 3.96e+06 M⁻¹ s⁻¹. Besides, in experiment [7], the Kd amounted to 20.3 nM, the koff is 0.00332 s⁻¹ and the kon was 164000 M⁻¹ s⁻¹.

B6: aC1s_D32S IgG1-dK (antibody, V domains shown)
VH: B1 VH
VL: B1 VL with D32S
notes: Bivalent monospecific human IgG1
In the case of B6, the “IC50 … (classical pathway, 1% NHS)” value in experiment [2] came to 10.7 µg/mL. In addition, in experiment [4], the Kd is 7.3 nM, the koff was 0.0065 s⁻¹ and the kon was 890000 M⁻¹ s⁻¹.

Source of the values: US20250376511A1 (Sanofi, published 2025).
